Measured values published in patent publication US20240279355A1 (Hoffmann-La Roche, published 2024).

B1: Molecule A: 2+1 IgG CrossFab inverted anti-STEAP1/anti-CD3 T cell bispecific (TCB) antibody with the vandortuzumab variable domains (bispecific antibody)
heavy 1: EVQLVESGGGLVQPGGSLRLSCAVSGYSITSDYAWNWVRQAPGKGLEWVGYISNSGSTSYNPSLKSRFTISRDTSKNTLYLQMNSLRAEDTAVYYCARERNYDYDDYYYAMDYWGQGTLVTVSSASTKGPSVFPLAPSSKSTSGGTAALGCLVEDYFPEPVTVSWNSGALTSGVHTFPAVLQSSGLYSLSSVVTVPSSSLGTQTYICNVNHKPSNTKVDEKVEPKSCDKTHTCPPCPAPEAAGGPSVFLFPPKPKDTLMISRTPEVTCVVVDVSHEDPEVKFNWYVDGVEVHNAKTKPREEQYNSTYRVVSVLTVLHQDWLNGKEYKCKVSNKALGAPIEKTISKAKGQPREPQVCTLPPSRDELTKNQVSLSCAVKGFYPSDIAVEWESNGQPENNYKTTPPVLDSDGSFFLVSKLTVDKSRWQQGNVFSCSVMHEALHNHYTQKSLSLSP
heavy 2: not shown
light 1: DIQMTQSPSSLSASVGDRVTITCKSSQSLLYRSNQKNYLAWYQQKPGKAPKLLIYWASTRESGVPSRFSGSGSGTDFTLTISSLQPEDFATYYCQQYYNYPRTFGQGTKVEIKRTVAAPSVFIFPPSDRKLKSGTASVVCLLNNFYPREAKVQWKVDNALQSGNSQESVTEQDSKDSTYSLSSTLTLSKADYEKHKVYACEVTHQGLSSPVTKSFNRGEC
light 2: EVQLLESGGGLVQPGGSLRLSCAASGFTFSTYAMNWVRQAPGKGLEWVSRIRSKYNNYATYYADSVKGRFTISRDDSKNTLYLQMNSLRAEDTAVYYCVRHGNFGNSYVSWFAYWGQGTLVTVSSASVAAPSVFIFPPSDEQLKSGTASVVCLLNNFYPREAKVQWKVDNALQSGNSQESVTEQDSKDSTYSLSSTLTLSKADYEKHKVYACEVTHQGLSSPVTKSFNRGEC
notes: Two STEAP1 Fabs (charge modifications EE/RK) and one CD3 CrossFab (VH/VL exchange), human IgG1 Fc with knob-into-hole and PGLALA; also called STEAP-1 TCB antibody
B2: Molecule C: 2+1 IgG CrossFab inverted anti-STEAP1/anti-CD3 TCB antibody, D100bE mutation in both STEAP1 binding moieties (bispecific antibody)
heavy 1: EVQLVESGGGLVQPGGSLRLSCAVSGYSITSDYAWNWVRQAPGKGLEWVGYISNSGSTSYNPSLKSRFTISRDTSKNTLYLQMNSLRAEDTAVYYCARERNYDYDEYYYAMDYWGQGTLVTVSSASTKGPSVFPLAPSSKSTSGGTAALGCLVEDYFPEPVTVSWNSGALTSGVHTFPAVLQSSGLYSLSSVVTVPSSSLGTQTYICNVNHKPSNTKVDEKVEPKSCDKTHTCPPCPAPEAAGGPSVFLFPPKPKDTLMISRTPEVTCVVVDVSHEDPEVKFNWYVDGVEVHNAKTKPREEQYNSTYRVVSVLTVLHQDWLNGKEYKCKVSNKALGAPIEKTISKAKGQPREPQVCTLPPSRDELTKNQVSLSCAVKGFYPSDIAVEWESNGQPENNYKTTPPVLDSDGSFFLVSKLTVDKSRWQQGNVFSCSVMHEALHNHYTQKSLSLSP
heavy 2: not shown
light 1: DIQMTQSPSSLSASVGDRVTITCKSSQSLLYRSNQKNYLAWYQQKPGKAPKLLIYWASTRESGVPSRFSGSGSGTDFTLTISSLQPEDFATYYCQQYYNYPRTFGQGTKVEIKRTVAAPSVFIFPPSDRKLKSGTASVVCLLNNFYPREAKVQWKVDNALQSGNSQESVTEQDSKDSTYSLSSTLTLSKADYEKHKVYACEVTHQGLSSPVTKSFNRGEC
light 2: EVQLLESGGGLVQPGGSLRLSCAASGFTFSTYAMNWVRQAPGKGLEWVSRIRSKYNNYATYYADSVKGRFTISRDDSKNTLYLQMNSLRAEDTAVYYCVRHGNFGNSYVSWFAYWGQGTLVTVSSASVAAPSVFIFPPSDEQLKSGTASVVCLLNNFYPREAKVQWKVDNALQSGNSQESVTEQDSKDSTYSLSSTLTLSKADYEKHKVYACEVTHQGLSSPVTKSFNRGEC
notes: Same format as Molecule A; also called STEAP-1 TCB antibody variant (DE)
B3: Molecule B: 2+1 IgG CrossFab inverted anti-STEAP1/anti-CD3 TCB antibody, D100aE mutation in both STEAP1 binding moieties (bispecific antibody)
heavy 1: EVQLVESGGGLVQPGGSLRLSCAVSGYSITSDYAWNWVRQAPGKGLEWVGYISNSGSTSYNPSLKSRFTISRDTSKNTLYLQMNSLRAEDTAVYYCARERNYDYEDYYYAMDYWGQGTLVTVSSASTKGPSVFPLAPSSKSTSGGTAALGCLVEDYFPEPVTVSWNSGALTSGVHTFPAVLQSSGLYSLSSVVTVPSSSLGTQTYICNVNHKPSNTKVDEKVEPKSCDKTHTCPPCPAPEAAGGPSVFLFPPKPKDTLMISRTPEVTCVVVDVSHEDPEVKFNWYVDGVEVHNAKTKPREEQYNSTYRVVSVLTVLHQDWLNGKEYKCKVSNKALGAPIEKTISKAKGQPREPQVCTLPPSRDELTKNQVSLSCAVKGFYPSDIAVEWESNGQPENNYKTTPPVLDSDGSFFLVSKLTVDKSRWQQGNVFSCSVMHEALHNHYTQKSLSLSP
heavy 2: not shown
light 1: DIQMTQSPSSLSASVGDRVTITCKSSQSLLYRSNQKNYLAWYQQKPGKAPKLLIYWASTRESGVPSRFSGSGSGTDFTLTISSLQPEDFATYYCQQYYNYPRTFGQGTKVEIKRTVAAPSVFIFPPSDRKLKSGTASVVCLLNNFYPREAKVQWKVDNALQSGNSQESVTEQDSKDSTYSLSSTLTLSKADYEKHKVYACEVTHQGLSSPVTKSFNRGEC
light 2: EVQLLESGGGLVQPGGSLRLSCAASGFTFSTYAMNWVRQAPGKGLEWVSRIRSKYNNYATYYADSVKGRFTISRDDSKNTLYLQMNSLRAEDTAVYYCVRHGNFGNSYVSWFAYWGQGTLVTVSSASVAAPSVFIFPPSDEQLKSGTASVVCLLNNFYPREAKVQWKVDNALQSGNSQESVTEQDSKDSTYSLSSTLTLSKADYEKHKVYACEVTHQGLSSPVTKSFNRGEC
notes: Same format as Molecule A; also called STEAP-1 TCB antibody variant (ED)
B4: Molecule D: 2+1 IgG CrossFab inverted anti-STEAP1/anti-CD3 TCB antibody, D100aE/D100bE mutations in both STEAP1 binding moieties (bispecific antibody)
heavy 1: EVQLVESGGGLVQPGGSLRLSCAVSGYSITSDYAWNWVRQAPGKGLEWVGYISNSGSTSYNPSLKSRFTISRDTSKNTLYLQMNSLRAEDTAVYYCARERNYDYEEYYYAMDYWGQGTLVTVSSASTKGPSVFPLAPSSKSTSGGTAALGCLVEDYFPEPVTVSWNSGALTSGVHTFPAVLQSSGLYSLSSVVTVPSSSLGTQTYICNVNHKPSNTKVDEKVEPKSCDKTHTCPPCPAPEAAGGPSVFLFPPKPKDTLMISRTPEVTCVVVDVSHEDPEVKFNWYVDGVEVHNAKTKPREEQYNSTYRVVSVLTVLHQDWLNGKEYKCKVSNKALGAPIEKTISKAKGQPREPQVCTLPPSRDELTKNQVSLSCAVKGFYPSDIAVEWESNGQPENNYKTTPPVLDSDGSFFLVSKLTVDKSRWQQGNVFSCSVMHEALHNHYTQKSLSLSP
heavy 2: not shown
light 1: DIQMTQSPSSLSASVGDRVTITCKSSQSLLYRSNQKNYLAWYQQKPGKAPKLLIYWASTRESGVPSRFSGSGSGTDFTLTISSLQPEDFATYYCQQYYNYPRTFGQGTKVEIKRTVAAPSVFIFPPSDRKLKSGTASVVCLLNNFYPREAKVQWKVDNALQSGNSQESVTEQDSKDSTYSLSSTLTLSKADYEKHKVYACEVTHQGLSSPVTKSFNRGEC
light 2: EVQLLESGGGLVQPGGSLRLSCAASGFTFSTYAMNWVRQAPGKGLEWVSRIRSKYNNYATYYADSVKGRFTISRDDSKNTLYLQMNSLRAEDTAVYYCVRHGNFGNSYVSWFAYWGQGTLVTVSSASVAAPSVFIFPPSDEQLKSGTASVVCLLNNFYPREAKVQWKVDNALQSGNSQESVTEQDSKDSTYSLSSTLTLSKADYEKHKVYACEVTHQGLSSPVTKSFNRGEC
notes: Same format as Molecule A; also called STEAP-1 TCB antibody variant (EE)
B5: vandortuzumab (antibody, V domains shown)
VH: EVQLVESGGGLVQPGGSLRLSCAVSGYSITSDYAWNWVRQAPGKGLEWVGYISNSGSTSYNPSLKSRFTISRDTSKNTLYLQMNSLRAEDTAVYYCARERNYDYDDYYYAMDYWGQGTLVTVSS
VL: DIQMTQSPSSLSASVGDRVTITCKSSQSLLYRSNQKNYLAWYQQKPGKAPKLLIYWASTRESGVPSRFSGSGSGTDFTLTISSLQPEDFATYYCQQYYNYPRTFGQGTKVEIK

Legend:
[1] = biological target: T1, human STEAP-1 (six-transmembrane epithelial antigen of prostate 1) (human, UniProt Q9UHE8 1-339); assay: cell-based ELISA on CHO-K1 cells stably expressing human STEAP1; binding EC50 of the stressed sample against the untreated sample x100
T1 construct: Full-length human STEAP1 stably expressed on CHO-K1 cells (CHO-hSTEAP1); endogenous on LnCAP and 22Rv1 cells in the functional assays; also called hSTEAP-1
Description: Characterization of Binding Potency After Stress Using a Cell-Based ELISA To quantify the reduction in binding potency caused by 1-4 weeks stress at either pH 7.4 or 6.0, a cell-based ELISA was employed using CHO-K1 cells stably expressing human STEAP1. For this cell-based ELISA, 10,000 cells were seeded per well of a 96-well plate and incubated for 18 h at 37° C., 5% CO₂. Supernatant was removed using an automated washer (BIOTEK), and 100 μl of a dilution series (10 pM-30 nM) of antibody constructs in growth medium was added to each well. After 1 h of incubation at 4° C., wells were emptied and 100 μl of 0.05% glutaraldehyde in PBS added for 10 min at RT. After 4 washes with PBS/0.025% Tween20 (PBST), 100 μl of anti-human-IgG-HRP (Jackson) diluted 1:20000 in Blocking buffer (Roche) was added and plates incubated for 1 h at room temperature (RT). Wells were washed 6 times with PBST and signal was generated using 100 μl of TMB per well, the reaction stopped after 10 minutes with 50 μl 1 M HCl and absorbance measured at 450 nm. Data (Table 4) were expressed as “% binding”, dividing the binding EC50 of the stressed sample by that of the untreated sample multiplied by 100.

[2] = biological target: FcRn (neonatal Fc receptor); assay: FcRn affinity chromatography, pH gradient elution; retention time compared to protein standards with known affinities
Description: FcRn was expressed, purified and biotinylated as described (Schlothauer et al., MAbs (2013) 5(4), 576-86). For coupling, the prepared receptor was added to streptavidin-sepharose (GE Healthcare). The resulting FcRn-sepharose matrix was packed in a column housing. The column was equilibrated with 20 mM 2-(N-morpholine)-ethanesulfonic acid (MES), 140 mM NaCl, pH 5.5 (eluent A) at a 0.5 ml/min flow rate. 30 μg of antibody samples were diluted at a volume ratio of 1:1 with eluent A and applied to the FcRn column. The column was washed with 5 column volumes of eluent A followed by elution with a linear gradient from 20 to 100% 20 mM Tris/HCl, 140 mM NaCl, pH 8.8 (eluent B) in 35 column volumes. The analysis was performed with a column oven at 25° C. The elution profile was monitored by continuous measurement of the absorbance at 280 nm. Retention times were compared to protein standards with known affinities.

[3] = biological target: T1, human STEAP-1 (six-transmembrane …); assay: flow cytometry on CHO-K1 cells stably transfected with full-length human STEAP1, PerCP anti-human IgG secondary
Text: A gene encoding full-length human STEAP1 was subcloned into mammalian expression vector. The plasmid was transfected into CHO-K1 (ATCC CRL-9618) cells using Lipofectamine LTX Reagent according to the manufacturer's protocol (Invitrogen, #15338100). Stably transfected STEAP1-positive CHO cells were maintained in DMEM/F-12 medium (Gibco, #11320033) supplemented with 10% fetal bovine serum (Gibco, #16140063) and 1% GlutaMAX Supplement (Gibco; #31331-028). Two days after transfection, puromycin (Invivogen; #ant-pr-1) was added to 6 μg/mL and the cells were cultured for several passages. After initial selection, the cells with the highest cell surface expression of STEAP1 were sorted by BD FACSAria II cell sorter (BD Biosciences) and cultured to establish stable cell clones. The expression level and stability was confirmed by FACS analysis using vandortuzumab and PerCP-conjugated Fc gamma-specific goat anti-human IgG (Jackson ImmunoResearch, #109-126-097) as secondary antibody over a period of 4 weeks.

T1 sequence (Q9UHE8 whole entry): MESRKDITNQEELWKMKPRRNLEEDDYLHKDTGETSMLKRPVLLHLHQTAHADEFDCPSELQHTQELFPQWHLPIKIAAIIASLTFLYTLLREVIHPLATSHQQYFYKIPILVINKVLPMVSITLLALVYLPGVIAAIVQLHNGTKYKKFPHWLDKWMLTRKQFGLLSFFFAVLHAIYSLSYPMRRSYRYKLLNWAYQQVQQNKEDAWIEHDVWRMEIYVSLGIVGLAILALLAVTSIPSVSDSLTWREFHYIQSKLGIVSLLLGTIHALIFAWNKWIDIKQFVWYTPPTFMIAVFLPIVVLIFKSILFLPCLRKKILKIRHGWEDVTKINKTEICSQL
Chain of FcRn (neonatal Fc receptor) (P55899 24-297, chain 1 of 2): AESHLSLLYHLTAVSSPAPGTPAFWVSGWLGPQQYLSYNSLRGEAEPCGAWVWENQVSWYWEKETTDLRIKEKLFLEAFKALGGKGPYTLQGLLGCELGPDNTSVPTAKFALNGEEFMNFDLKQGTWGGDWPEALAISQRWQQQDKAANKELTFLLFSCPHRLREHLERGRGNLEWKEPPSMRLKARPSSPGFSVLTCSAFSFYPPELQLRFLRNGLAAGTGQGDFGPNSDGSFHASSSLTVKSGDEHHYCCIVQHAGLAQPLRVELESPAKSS
Chain of FcRn (neonatal Fc receptor) (P61769 21-119, chain 2 of 2, further chain): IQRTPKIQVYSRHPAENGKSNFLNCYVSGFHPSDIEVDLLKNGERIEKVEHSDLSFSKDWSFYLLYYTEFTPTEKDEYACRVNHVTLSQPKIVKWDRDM

Binder | Relative binding potency (%) (after 28 days at 40° C., pH 6) [1] | FcRn affinity [2] | binding result [3]
B1 | 66% | 0.61 | 
B2 | 69% |  | 
B3 | 79% | 0.69 | 
B4 | 100% | 0.65 | 
B5 |  |  | binds
